Substitutions are numbered along the chain they refer to. Blank lines part the entries; values can stand above or below the binder they belong to.
What was measured:
[1] = target: T1, NKp30 (form in the assay not stated) (UniProt O14931 19-135, limits assumed); experiment: flow cytometry, y axis NKp30 (MFI); cells not named in the legend or on the sheet
T1 construct: It is inferred from BGA1831 being an anti-NKp30 antibody
T1 sequence (looked up): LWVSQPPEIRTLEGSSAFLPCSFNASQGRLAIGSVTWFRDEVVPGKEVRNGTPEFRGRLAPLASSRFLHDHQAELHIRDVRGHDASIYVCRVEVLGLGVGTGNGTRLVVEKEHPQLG

his-tagged human NKp30 [2] = target: T2, his-tagged human NKp30 (human, UniProt O14931 19-135); experiment: SPR (BIAcore T-200), antibody captured by anti-mouse IgG, his-tagged human NKp30 as analyte
T2 construct: Analyte of the SPR assay; not shown: his tag
T2 sequence: T1 sequence (looked up)
From the text: The NKp30 antibodies with high binding activities in ELISA and FACS, as well as with potent functional activities in the cell-based assays (described in Example 1 above) were characterized for their binding kinetics by SPR assays using BIAcore™ T-200 (GE Life Sciences). Briefly, an anti-mouse IgG antibody was immobilized on an activated CM5 biosensor chip (Cat. No.: BR100530, GE Life Sciences). Purified NKp30 murine antibodies were flowed over the chip surface and captured by the anti-mouse IgG antibody. Then a serial dilution (0.098 nM to 25 nM) of his-tagged human NKp30 was flowed over the chip surface and changes in surface plasmon resonance signals were analyzed to calculate the association rates (kₒₙ) and dissociation rates (koff) by using the one-to-one Langmuir binding model (BIA Evaluation Software, GE Life Sciences). The equilibrium dissociation constant (KD) was calculated as the ratio koff/kₒₙ.

NKp30-mIgG2a = target: T3, NKp30-mIgG2a (human; mouse, UniProt O14931 19-135); experiment: flow cytometry blocking assay; binding of NKp30-mIgG2a to B7-H6 on HCT116/B7-H6 cells in the presence of serially diluted antibody
T3 construct: also called soluble NKp30; NKp30-mIgG2a fusion protein; not shown: Fc domain of mouse IgG2a, fused to the C-terminus of the NKp30 ECD
T3 sequence: T1 sequence (looked up)
Experimental: A schematic diagram showing the inhibition of NKp30/B7-H6 interactions by anti-NKp30 Ab. The binding of soluble NKp30 (NKp30-mIgG2a fusion protein) to B7-H6-expressing HCT116 cells (HCT116/B7-H6) was determined by flow cytometry. The blockade of NKp30/B7-H6 interaction was quantitatively measured by adding serially diluted BGA1833/IgG1. Results are shown in mean±SD of duplicates.
(Joyce et al., 2011 PNAS 108:6223-6228). […] In addition, these two residues were previously determined to be important for NKp30/B7-H6 interaction in a structural study (Li et al., J Exp Med. 2011 208:703-714). […] For this assay, a B7-H6 stably transduced cell line HCT116/B7-H6 was incubated with NKp30-mIgG2a in the presence of serially diluted BGA1833, followed by detection with […].

his-tagged human NKp30 [3] = target: T2, his-tagged human NKp30; experiment: SPR, antibody captured on anti-human Fc surface; NKp30 analyte not named in Example 4
From the text: Further engineered versions of humanized monoclonal antibodies were derived from the mutation process described as above and characterized in detail. […] For affinity determination, antibodies were captured by anti-human Fc surface, and used in the affinity assay based on surface plasmon resonance (SPR) technology. All the humanization antibodies shown above were also confirmed for functional activities on primary human immune cells isolated from healthy donors (described in Example 7 below).

[4] = target: T4, full-length human NKp30 on NK92MI cells (human, UniProt O14931 19-201); experiment: flow cytometry on live NK92MI cells over-expressing human NKp30, goat anti-human IgG detection
T4 construct: Full-length human NKp30 over-expressed on NK92MI cells; also called huNKp30; native NKp30
T4 sequence: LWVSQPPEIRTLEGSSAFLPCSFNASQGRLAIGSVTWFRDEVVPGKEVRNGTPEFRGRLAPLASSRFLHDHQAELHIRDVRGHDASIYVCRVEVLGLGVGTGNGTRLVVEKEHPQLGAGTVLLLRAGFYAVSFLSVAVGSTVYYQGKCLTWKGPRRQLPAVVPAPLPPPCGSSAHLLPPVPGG
Experimental: To evaluate the binding activity of anti-NKp30 antibodies to native NKp30 on living cells, NK92MI cells were transfected to over-express human NKp30. Live NK92mi/NKp30 expressing cells were seeded in 96-well plates and were incubated with a serial dilution of anti-NKp30 antibodies. Goat anti-Human IgG was used as secondary antibody to detect antibody binding to the cell surface. EC₅₀ values for dose-dependent binding to human native NKp30 were determined by fitting the dose-response data to the four-parameter logistic model with GraphPad Prism™.

EC50 [1]: 0.263 µg/mL
Kd (his-tagged human NKp30 [2]): 0.132 nM
koff (his-tagged human NKp30 [2]): 0.00021 s⁻¹
kon (his-tagged human NKp30 [2]): 1.59e+06 M⁻¹ s⁻¹
IC50 (NKp30-mIgG2a): 0.169 µg/mL
B1: mu183 (antibody, V domains shown)
VH: QVQLQQPGSVLVRPGASVKLSCKASGYTFTSSWMHWAKQRPGQGLEWIGEIHPNRDNTNYNEKFKGKATLTVDTSSSTAYVDLSSLTSEDSAVYYCARSYYDYGGAYFDSWGQGTTLTVSS
VL: QIVLTQSHKFMSTSVGDRVSITCKASQDVSTAVAWYQQKPGQSPKLLIYAASYRHIGVPDRFTGSGSGTDFTFTISSVQAEDLAVYYCQQHYSNPFTFGSGTKLEIK
notes: Murine hybridoma antibody, purified on Protein A; also called murine anti-NKp30 antibody mu183

Kd (his-tagged human NKp30 [3]): 0.143 nM
koff (his-tagged human NKp30 [3]): 0.000318 s⁻¹
kon (his-tagged human NKp30 [3]): 2.22e+06 M⁻¹ s⁻¹
EC50 [4]: 1.55 nM
B2: ch183 (antibody, V domains shown)
VH: B1 VH
VL: B1 VL
notes: not shown: human immunoglobulin kappa constant region

Kd (his-tagged human NKp30 [3]): 0.213 nM
koff (his-tagged human NKp30 [3]): 0.000331 s⁻¹
kon (his-tagged human NKp30 [3]): 1.55e+06 M⁻¹ s⁻¹
B3: BGA1832 (antibody, human IgG1, kappa, V domains shown)
VH: QVQLVQSGAEVKKPGASVKVSCKASGYTFTSSYMHWVRQAPGQGLEWMGEIHPNRDNTNYNEKFKGRVTMTVDTSTSTVYMELSSLRSEDTAVYYCARSYYDYGGAYFDAWGQGTLVTVSS
VL: DIQLTQSPSSLSASVGDRVTITCKASQDVSTAVAWYQQKPGKAPKLLIYAASYRHIGVPSRFSGSGSGTDFTLTISSLQPEDFATYYCQQHYSNPFTFGGGTKVEIKR

Kd (his-tagged human NKp30 [3]): 0.198 nM
koff (his-tagged human NKp30 [3]): 0.000377 s⁻¹
kon (his-tagged human NKp30 [3]): 1.91e+06 M⁻¹ s⁻¹
EC50 [4]: 1.26 nM
B4: BGA1831 (antibody, human IgG1, kappa, V domains shown)
VH: B3 VH with E10V, K12V, Y33W, V37A, M48I, V68A, M70L, V79A, A110S
VL: B3 VL with D1Q, Q3V, A43S, L73F
notes: also called humanized anti-NKp30 Ab BGA1831

IC50 (NKp30-mIgG2a): 0.144 µg/mL
B5: BGA1833/IgG1 (antibody)
heavy: not shown
light: QIQLTQSPSSLSASVGDRVTITCKASQDVSTAVAWYQQKPGKAPKLLIYAASYRHIGVPSRFSGSGSGTDFTLTISSLQPEDFATYYCQQHYSNPFTFGGGTKVEIKRTVAAPSVFIFPPSDEQLKSGTASVVCLLNNFYPREAKVQWKVDNALQSGNSQESVTEQDSKDSTYSLSSTLTLSKADYEKHKVYACEVTHQGLSSPVTKSFNRGEC
notes: BGA1833 with wild-type human IgG1 heavy chain; also called BGA1833 with wt IgG1
